Test results: PMC9122904, “Insights into the client protein release mechanism of the ATP-independent chaperone Spy” (Nature Communications, 2022)
Numbering of substitutions follows the chain as printed. In names and notes the source's numbering stands.

How the values were obtained:
Test in all cases: BLI; Octet RED96; client biotinylated and loaded on streptavidin sensors; Spy or Spy variant in solution at 0.25, 0.5, 1, 1.5 and 2 μM; 40 mM HEPES, 150 mM NaCl, pH 7.5; Kd calculated as koff/kon
Details in all cases: both partners purified
Spy_(29-124) R43D = biological target: T1, Spy_(29-124) R43D (UniProt P77754 52-147, R43D)
T1 construct: source: E. coli BL21 (DE3), purified (Ni-NTA, cation exchange, SEC); not shown: His6, N-terminal, cleaved; SUMO, N-terminal, cleaved
T1 sequence (looked up): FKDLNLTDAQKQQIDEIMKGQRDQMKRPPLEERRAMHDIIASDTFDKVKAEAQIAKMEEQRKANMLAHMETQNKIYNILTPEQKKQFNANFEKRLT

Spy_(29-124) R50D = biological target: T2, Spy_(29-124) R50D (UniProt P77754 52-147, R50D)
T2 construct: source: E. coli BL21 (DE3), purified (Ni-NTA, cation exchange, SEC); not shown: His6, N-terminal, cleaved; SUMO, N-terminal, cleaved
T2 sequence (looked up): T1 sequence (looked up) with D15R, R22D

Spy_(29-124) K54D R55D = biological target: T3, Spy_(29-124) K54D R55D (UniProt P77754 52-147, K54D | R55D)
T3 construct: source: E. coli BL21 (DE3), purified (Ni-NTA, cation exchange, SEC); not shown: His6, N-terminal, cleaved; SUMO, N-terminal, cleaved
T3 sequence (looked up): T1 sequence (looked up) with D15R, K26D, R27D

Spy_(29-124) R61D R62D = biological target: T4, Spy_(29-124) R61D R62D (UniProt P77754 52-147, R61D | R62D)
T4 construct: source: E. coli BL21 (DE3), purified (Ni-NTA, cation exchange, SEC); not shown: His6, N-terminal, cleaved; SUMO, N-terminal, cleaved
T4 sequence (looked up): T1 sequence (looked up) with D15R, R33D, R34D

Spy_(29-124) K75D = biological target: T5, Spy_(29-124) K75D (UniProt P77754 52-147, K75D)
T5 construct: source: E. coli BL21 (DE3), purified (Ni-NTA, cation exchange, SEC); not shown: His6, N-terminal, cleaved; SUMO, N-terminal, cleaved
T5 sequence (looked up): T1 sequence (looked up) with D15R, K47D

Spy_(29-124) R89D = biological target: T6, Spy_(29-124) R89D (UniProt P77754 52-147, R89D)
T6 construct: source: E. coli BL21 (DE3), purified (Ni-NTA, cation exchange, SEC); not shown: His6, N-terminal, cleaved; SUMO, N-terminal, cleaved
T6 sequence (looked up): T1 sequence (looked up) with D15R, R61D

Spy_(29-124) H96D = biological target: T7, Spy_(29-124) H96D (UniProt P77754 52-147, H96D)
T7 construct: source: E. coli BL21 (DE3), purified (Ni-NTA, cation exchange, SEC); not shown: His6, N-terminal, cleaved; SUMO, N-terminal, cleaved
T7 sequence (looked up): T1 sequence (looked up) with D15R, H68D

Spy_(29-124) K121D R122D = biological target: T8, Spy_(29-124) K121D R122D (UniProt P77754 52-147, K121D | R122D)
T8 construct: source: E. coli BL21 (DE3), purified (Ni-NTA, cation exchange, SEC); not shown: His6, N-terminal, cleaved; SUMO, N-terminal, cleaved
T8 sequence (looked up): T1 sequence (looked up) with D15R, K93D, R94D

Spy_(24-127) = biological target: T9, Spy_(24-127) (UniProt P77754 47-150)
T9 construct: Spy chaperone, residues 24-127; source: E. coli BL21 (DE3), purified (Ni-NTA, cation exchange, SEC); not shown: His6, N-terminal, cleaved; SUMO, N-terminal, cleaved
T9 sequence (looked up): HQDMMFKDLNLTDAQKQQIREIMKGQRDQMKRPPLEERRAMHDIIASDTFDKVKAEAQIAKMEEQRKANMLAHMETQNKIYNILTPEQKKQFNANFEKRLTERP
Outline: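 Association was recorded with an Octet RED96 as streptavidin sensors carrying client proteins, biotinylated with EZ-link NHS-biotin at a 1:1 molar ratio, sat in 40 mM HEPES, 150 mM NaCl, pH 7.5 with 0.25 to 2 μM of the analyte protein (0.25, 0.5, 1, 1.5 and 2 μM). Dissociation followed after transfer to analyte-free buffer. Both wavelength-shift phases were fitted in SigmaPlot 12.0 to obtain koff and the observed association rate, whose dependence on analyte concentration yielded kon, with Kd defined as koff divided by kon.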

B1: Im7 H40W L53A I54A (natural protein)
chain: MELKNSISDYTEAEFVQLLKEIEKENVAATDDVLDVLLEWFVKITEHPDGTDAAYYPSDNRDDSPEGIVKEIKEWRAANGKPGFKQG
modifications: biotin (EZ-link NHS-biotin, 1:1 molar ratio of biotin to protein)
notes: Im7 (colicin E7 immunity protein) with H40W L53A I54A; Spy was made with an N-terminal His6-SUMO tag that was cleaved; also called Im7AAW; partially folded client; source: purified by a similar procedure to Spy
- kon (Spy_(29-124) R43D): 196000 M⁻¹ s⁻¹
- kon (Spy_(29-124) R50D): 178000 M⁻¹ s⁻¹
- kon (Spy_(29-124) K54D R55D): 126000 M⁻¹ s⁻¹
- kon (Spy_(29-124) R61D R62D): 74000 M⁻¹ s⁻¹
- kon (Spy_(29-124) K75D): 156000 M⁻¹ s⁻¹
- kon (Spy_(29-124) R89D): 48000 M⁻¹ s⁻¹
- kon (Spy_(29-124) H96D): 185000 M⁻¹ s⁻¹
- kon (Spy_(29-124) K121D R122D): 188000 M⁻¹ s⁻¹
- kon (Spy_(24-127)): 227000 M⁻¹ s⁻¹
